Source: paper PMC4351158
Changes are numbered by the printed parent chain. Names and notes keep the numbering of the source.

B1: DegP S210A (proteolytically inactive variant missing the catalytic serine) (enzyme)
chain: AETSSATTAQQMPSLAPMLEKVMPSVVSINVEGSTTVNTPRMPRNFQQFFGDDSPFCQEGSPFQSSPFCQGGQGGNGGGQQQKFMALGSGVIIDADKGYVVTNNHVVDNATVIKVQLSDGRKFDAKMVGKDPRSDIALIQIQNPKNLTAIKMADSDALRVGDYTVAIGNPFGLGETVTSGIVSALGRSGLNAENYENFIQTDAAINRGNAGGALVNLNGELIGINTAILAPDGGNIGIGFAIPSNMVKNLTSQMVEYGQVKRGELGIMGTELNSELAKAMKVDAQRGAFVSQVLPNSSAAKAGIKAGDVITSLNGKPISSFAALRAQVGTMPVGSKLTLGLLRDGKQVNVNLELQQSSQNQVDSSSIFNGIEGAEMSNKGKDQGVVVNNVKTGTPAAQIGLKKGDVIIGANQQAVKNIAELRKVLDSKPSVLALNIQRGDSTIYLLMQ
modifications: donor or acceptor dye on the trimers in the FRET assay only (site not given)
B2: DegP S210A/Q200A (enzyme)
chain: B1 chain with Q200A
modifications: donor or acceptor dye on the trimers in the FRET assay only (site not given)
B3: DegP S210A/T176V (enzyme)
chain: B1 chain with T176V
modifications: donor or acceptor dye on the trimers in the FRET assay only (site not given)
B4: DegP S210A/R187A (enzyme)
chain: B1 chain with R187A
modifications: donor or acceptor dye on the trimers in the FRET assay only (site not given)

target: fluorescent peptide derived from residues 18-58 of lysozyme; assay: fluorescence polarisation

**Q.** With B1 as the binder, how does the Kd read?
**A.** 1 µM

**Q.** How did the Kd turn out when B2 was run?
**A.** 30 µM

**Q.** For B3, which Kd is on record?
**A.** 30 µM

**Q.** How did the Kd turn out when B4 was run?
**A.** 30 µM

target: fluorescent peptide derived from residues 18-58 of lysozyme; assay: fluorescence polarisation; remark: another data set of the same source

**Q.** How did the Kd turn out when B2 was run?
**A.** 30 µM

**Q.** Which Kd does the source give for B3 here?
**A.** 30 µM

**Q.** For B4, which Kd is on record?
**A.** 30 µM
